From paper PMC11323535, “Neisserial adhesin A (NadA) binds human Siglec-5 and Siglec-14 with high affinity and promotes bacterial adhesion/invasion” (mBio, 2024) come the findings set out here.

The experiment concerns the target T1, recombinant soluble NadA (NadA_(24–350)) (Neisseria meningitidis strain 2996, UniProt Q8KH85 24-350).
T1 construct: Neisserial adhesin A (NadA) variant 3, N. meningitidis strain 2996, residues 24-350: ectodomain without the leader peptide and the anchor domain; Heated at 80°C for 2 h (thermally stressed, monomeric) in one SPR experiment; also called rNadA; NadA ectodomain
Nature of the experiment: peptide or protein array; recombinant soluble human and mouse proteins spotted; rNadA_(24–350) 1 µM in Nap-PBS overlaid for 1 h; rabbit anti-NadA serum and AlexaFluor 647 anti-rabbit IgG; MFI ≥ 30,000 high reactivity, MFI < 5,000 no reactivity. To be noted: both partners purified.

B1: Stathmin 2 (protein microarray) (natural protein, human, UniProt Q93045-2 1-187, looked up)
chain: MAKTAMAYKEKMKELSMLSLICSCFYPEPRNINIYTYDDMEVKQINKRASGQAFELILKPPSPISEAPRTLASPKKKDLSLEEIQKKLEAAEERRKSQEAQVLKQLAEKREHEREVLQKALEENNNFSKMAEEKLILKMEQIKENREANLAAIIERLQEKLVKFISSELKESIESQFLELQREGEKQ
notes: human stathmin 2, recombinant soluble protein; also called STMN2; source: recombinant soluble protein produced at GNF, spotted on the microarray
Turning to B1, the binding result is “binds”.

B2: Chromosome two open reading frame 66 (protein microarray) (natural protein, human, UniProt Q6UXQ4 39-117, looked up)
chain: ATVRNEDKWKPLNNPRNRDLFFRRLQAYFKGRGLDLGTFPNPFPTNENPRPLSFQSELTASASADYEEQKNSFHNYLKG
notes: human C2orf66, recombinant soluble protein; also called C2orf66; source: recombinant soluble protein produced at GNF, spotted on the microarray
Take B2: the binding result is recorded as “binds”.
